From patent publication US20180346602A1
Substitutions are numbered along the chain they refer to.

B1: anti-variant (human) Fc-region antibody M1.3.17 (antibody, V domains shown)
VH: EVKLLESGGGLVQPGGSLKLSCAASGIDFRRYWMNWVRQAPGKGLEWIGEIDPDSSTINYTPSLKDKFIISRDNAKNTMYLQMRKVRSEDTALYYCARPYDYGAWFAYWGQGTLVTVSA
VL: QAVVTQESALTTSPGETVTLTCRSTTGAVTTSNYANWVQEKPDHLFTGLIGGTNKRAPGVPARFSGSLIGDKAALTITGAQTEDEAIYFCALWYSDHWVFGGGTKLTVL
B2: anti-variant (human) Fc-region antibody M1.7.24 (antibody, V domains shown)
VH: B1 VH with I27F, R30S, D52T, M79L, R84I, A97V, Y108S
VL: B1 VL with T25S, D96N
B3: anti-AAA variant Fc-region antibody M1.6.22 (antibody, V domains shown)
VH: EVQLVESGGDLVKPGGSLKLSCAASGFTFSSYGMSWVRQTPDKRLEWVATISSGGSYIYYPDSVKGRFTISRDNAKNTLYLQMSSLKSEDTAMYYCARLGMITTGYAMDYWGQGTSVTVSS
VL: DVLMTQTPLSLPVSLGDQASISCRSSQTIVHSTGHTYLEWFLQKPGQSPKLLIYKVSNRFSGVPDRFSGSGSGTDFTLKISRVEAEDLGVYYCFQGSHVPYTFGGGTKLEIK

Target: anti-VEGF/ANG2 antibody (IgG1 subclass with mutations P329G/L234A/L235A) [IgG part: P01857]
Assay: sandwich ELISA assay A; capture M1.7.10-Bi; antibody 2 at 2 ng/mL

Binder	signal [OD405 nm]
B1	0.669
B2	1.13
B3	0.047

Target: anti-VEGF/ANG2 antibody (wild-type IgG1 subclass) [IgG part: P01857]
Assay: sandwich ELISA assay A; capture M1.7.10-Bi; antibody 5 at 13 ng/mL

Binder	signal [OD405 nm]
B1	0.038
B2	0.042
B3	0.045

Target: anti-P-Selectin antibody (IgG4 subclass with mutations S228P/L235E) [IgG part: P01861]
Assay: sandwich ELISA assay A; capture M1.7.10-Bi; antibody 4 at 6 ng/mL

Binder	signal [OD405 nm]
B1	0.036
B2	0.045
B3	0.041

Target: anti-VEGF/ANG2 antibody (IgG1 subclass with mutations P329G/L234A/L235A/I253A/H310A/H435A) (human) [IgG part: P01857]
Assay: sandwich ELISA assay B; capture on SA plate; tracer M1.7.10-Dig; analyte 6 ng/mL

Binder	signal [OD405 nm]
B1	0.035
B2	0.053
B3	0.039

Target: anti-VEGF/ANG2 antibody (IgG1 subclass with mutations P329G/L234A/L235A) (human) [IgG part: P01857]
Assay: as above

Binder	signal [OD405 nm]
B1	0.196
B2	2.98
B3	0.053

Target: anti-P-Selectin antibody (IgG4 subclass with mutations S228P/L235E) (human) [IgG part: P01861]
Assay: as above

Binder	signal [OD405 nm]
B1	0.048
B2	0.037
B3	0.04

Target: anti-IGF-1R antibody (IgG1 subclass with mutations I253A/H310A/H435A) (human) [IgG part: P01857]
Assay: as above

Binder	signal [OD405 nm]
B1	0.045
B2	0.039
B3	2.73

Target: anti-VEGF/ANG2 antibody (IgG1 subclass with mutations P329G/L234A/L235A/I253A/H310A/H435A) (human) [IgG part: P01857]
Assay: sandwich ELISA assay C; capture on SA plate; tracer FcγRI-Dig; analyte 2 ng/mL

Binder	signal [OD405 nm]
B1	1.17
B2	0.085
B3	0.077

Target: anti-VEGF/ANG2 antibody (IgG1 subclass with mutations P329G/L234A/L235A) (human) [IgG part: P01857]
Assay: as above

Binder	signal [OD405 nm]
B1	1.22
B2	0.093
B3	0.072

Target: anti-P-Selectin antibody (IgG4 subclass with mutations S228P/L235E) (human) [IgG part: P01861]
Assay: as above

Binder	signal [OD405 nm]
B1	1.19
B2	0.056
B3	0.067

Target: anti-IGF-1R antibody (IgG1 subclass with mutations I253A/H310A/H435A) (human) [IgG part: P01857]
Assay: as above

Binder	signal [OD405 nm]
B1	1.26
B2	0.074
B3	0.082

Target: anti-IGF-1R antibody (IgG1 subclass with mutations I253A/H310A/H435A) [IgG part: P01857]
Assay: sandwich ELISA assay A; capture M1.7.10-Bi; antibody 3 at 2 ng/mL

Binder	signal [OD405 nm]
B1	0.042
B2	0.048
B3	0.199

Target: anti-VEGF/ANG2 antibody (IgG1 subclass with mutations P329G/L234A/L235A) [IgG part: P01857]
Assay: sandwich ELISA assay A; capture M1.7.10-Bi; antibody 2 at 25 ng/mL

Binder	signal [OD405 nm]
B1	2.93
B2	2.61
B3	0.06

Target: anti-VEGF/ANG2 antibody (IgG1 subclass with mutations P329G/L234A/L235A/I253A/H310A/H435A) (human) [IgG part: P01857]
Assay: sandwich ELISA assay C; capture on SA plate; tracer FcγRI-Dig; analyte 3 ng/mL

Binder	signal [OD405 nm]
B1	1.16
B2	0.094
B3	0.066

Target: anti-VEGF/ANG2 antibody (IgG1 subclass with mutations P329G/L234A/L235A) (human) [IgG part: P01857]
Assay: as above

Binder	signal [OD405 nm]
B1	1.22
B2	0.057
B3	0.068

Target: anti-P-Selectin antibody (IgG4 subclass with mutations S228P/L235E) (human) [IgG part: P01861]
Assay: as above

Binder	signal [OD405 nm]
B1	1.19
B2	0.053
B3	0.05

Target: anti-IGF-1R antibody (IgG1 subclass with mutations I253A/H310A/H435A) (human) [IgG part: P01857]
Assay: as above

Binder	signal [OD405 nm]
B1	1.21
B2	0.077
B3	0.083

Target: anti-VEGF/ANG2 antibody (IgG1 subclass with mutations P329G/L234A/L235A/I253A/H310A/H435A) (human) [IgG part: P01857]
Assay: sandwich ELISA assay B; capture on SA plate; tracer M1.7.10-Dig; analyte 2 ng/mL

Binder	signal [OD405 nm]
B1	0.036
B2	0.049
B3	0.041

Target: anti-VEGF/ANG2 antibody (IgG1 subclass with mutations P329G/L234A/L235A) (human) [IgG part: P01857]
Assay: as above

Binder	signal [OD405 nm]
B1	0.125
B2	1.73
B3	0.041

Target: anti-P-Selectin antibody (IgG4 subclass with mutations S228P/L235E) (human) [IgG part: P01861]
Assay: as above

Binder	signal [OD405 nm]
B1	0.049
B2	0.033
B3	0.032

Target: anti-IGF-1R antibody (IgG1 subclass with mutations I253A/H310A/H435A) (human) [IgG part: P01857]
Assay: as above

Binder	signal [OD405 nm]
B1	0.047
B2	0.047
B3	1.48

Target: anti-VEGF/ANG2 antibody (IgG1 subclass with mutations P329G/L234A/L235A/I253A/H310A/H435A) [IgG part: P01857]
Assay: sandwich ELISA assay A; capture M1.7.10-Bi; antibody 1 at 0 ng/mL (blank)

Binder	signal [OD405 nm]
B1	0.044
B2	0.05
B3	0.058

Target: anti-IGF-1R antibody (IgG1 subclass with mutations I253A/H310A/H435A) [IgG part: P01857]
Assay: sandwich ELISA assay A; capture M1.7.10-Bi; antibody 3 at 25 ng/mL

Binder	signal [OD405 nm]
B1	0.043
B2	0.047
B3	2.51

Target: anti-VEGF/ANG2 antibody (wild-type IgG1 subclass) [IgG part: P01857]
Assay: sandwich ELISA assay A; capture M1.7.10-Bi; antibody 5 at 25 ng/mL

Binder	signal [OD405 nm]
B1	0.037
B2	0.039
B3	0.053

Target: anti-IGF-1R antibody (IgG1 subclass with mutations I253A/H310A/H435A) [IgG part: P01857]
Assay: sandwich ELISA assay A; capture M1.7.10-Bi; antibody 3 at 50 ng/mL

Binder	signal [OD405 nm]
B1	0.044
B2	0.048
B3	2.74
